Source: patent publication US20080242590A1, “New Method 706” (ASTRAZENECA AB, priority 2007, published 2008)

Legend:
[1] = biological target: amyloid β peptide 1-40 (human) (human); assay: cell-based or functional assay
[2] = biological target: amyloid β peptide 1-42 (human) (human); assay: cell-based or functional assay
Sequence of amyloid β peptide 1-42 (human) (human) (peptide, as listed by the source): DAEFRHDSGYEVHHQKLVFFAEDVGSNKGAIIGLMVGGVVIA

Sequence of amyloid β peptide 1-40 (human) (human) (peptide, as listed by the source): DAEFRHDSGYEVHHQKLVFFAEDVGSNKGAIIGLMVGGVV

B1: Fc-Neprilysin fusion protein (human IgG2 hinge and Fc domain fused N-terminally to the extracellular domain of human Neprilysin) (Fc fusion)
chain: ERKCCVECPPCPAPPVAGPSVFLFPPKPKDTLMISRTPEVTCVVVDVSHEDPEVQFNWYVDGVEVHNAKTKPREEQFNSTFRVVSVLTVVHQDWLNGKEYKCKVSNKGLPAPIEKTISKTKGQPREPQVYTLPPSREEMTKNQVSLTCLVKGFYPSDIAVEWESNGQPENNYKTTPPMLDSDGSFFLYSKLTVDKSRWQQGNVFSCSVMHEALHNHYTQKSLSLSPGKYDDGICKSSDCIKSAARLIQNMDATTEPCTDFFKYACGGWLKRNVIPETSSRYGNFDILRDELEVVLKDVLQEPKTEDIVAVQKAKALYRSCINESAIDSRGGEPLLKLLPDIYGWPVATENWEQKYGASWTAEKAIAQLNSKYGKKVLINLFVGTDDKNSVNHVIHIDQPRLGLPSRDYYECTGIYKEACTAYVDFMISVARLIRQEERLPIDENQLALEMNKVMELEKEIANATAKPEDRNDPMLLYNKMTLAQIQNNFSLEINGKPFSWLNFTNEIMSTVNISITNEEDVVVYAPEYLTKLKPILTKYSARDLQNLMSWRFIMDLVSSLSRTYKESRNAFRKALYGTTSETATWRRCANYVNGNMENAVGRLYVEAAFAGESKHVVEDLIAQIREVFIQTLDDLTWMDAETKKRAEEKALAIKERIGYPDDIVSNDNKLNNEYLELNYKEDEYFENIIQNLKFSQSKQLKKLREKVDKDEWISGAAVVNAFYSSGRNQIVFPAGILQPPFFSAQQSNSLNYGGIGMVIGHEITHGFDDNGRNFNKDGDLVDWWTQQSASNFKEQSQCMVYQYGNFSWDLAGGQHLNGINTLGENIADNGGLGQAYRAYQNYIKKNGEEKLLPGLDLNHKQLFFLNFAQVWCGTYRPEYAVNSIKTDVHSPGNFRIIGTLQNSAEFSEAFHCRKNSYMNPEKKCRVW
Which % degradation of amyloid β 1-40 in APPswe-tg mouse plasma at highest concentration (100 µg/ml), 1 h room temperature, ELISA [1] does the source give for B1 here?
Its % degradation of amyloid β 1-40 in APPswe-tg mouse plasma at highest concentration (100 µg/ml), 1 h room temperature, ELISA is 71%.

And the % degradation of amyloid β 1-40 in human plasma at highest concentration (100 µg/ml), 1 h room temperature, ELISA [1]?
Its % degradation of amyloid β 1-40 in human plasma at highest concentration (100 µg/ml), 1 h room temperature, ELISA is 66%.

And the Amyloid β 1-40 peptide degradation (remaining peptide by Gyrolab immunoassay), batch 1, 2.4 µg/ml, 300 nM peptide, 2.5 h at 37 °C in buffer [1]?
The Amyloid β 1-40 peptide degradation (remaining peptide by Gyrolab immunoassay), batch 1, 2.4 µg/ml, 300 nM peptide, 2.5 h at 37 °C in buffer was 50%.

What about the Amyloid β 1-40 peptide degradation (remaining peptide by Gyrolab immunoassay), batch 2, 2.4 µg/ml, 300 nM peptide, 2.5 h at 37 °C in buffer [1] of the same binder?
Its Amyloid β 1-40 peptide degradation (remaining peptide by Gyrolab immunoassay), batch 2, 2.4 µg/ml, 300 nM peptide, 2.5 h at 37 °C in buffer is 42%.

And the EC50 of degradation of Aβ 1-40 in APPswe-tg mouse plasma [1]?
Its EC50 of degradation of Aβ 1-40 in APPswe-tg mouse plasma is 470 nM.

What about the EC50 of degradation of Aβ 1-40 in human plasma [1] of the same binder?
The EC50 of degradation of Aβ 1-40 in human plasma was 580 nM.

What about the % degradation of Aβ 1-42 in APPswe-tg mouse plasma at highest concentration (100 µg/ml), 1 h room temperature, ELISA [2] of the same binder?
Its % degradation of Aβ 1-42 in APPswe-tg mouse plasma at highest concentration (100 µg/ml), 1 h room temperature, ELISA is 34%.

And the % degradation of Aβ 1-42 in human plasma at highest concentration (100 µg/ml), 1 h room temperature, ELISA [2]?
The % degradation of Aβ 1-42 in human plasma at highest concentration (100 µg/ml), 1 h room temperature, ELISA was 28%.

What about the EC50 of degradation of Aβ 1-42 in APPswe-tg mouse plasma [2] of the same binder?
The EC50 of degradation of Aβ 1-42 in APPswe-tg mouse plasma was 1300 nM.

And the EC50 of degradation of Aβ 1-42 in human plasma [2]?
Its EC50 of degradation of Aβ 1-42 in human plasma is 250 nM.
